21 sequences from a protein production outcome set (Wang et al. 2014) can be followed below.

The nature of this data set: label from the status in PepcDB records.

On to “SGAAAAEADRTLFVGNLETKVTEELLFELFHQAGPVIKVKIPKDKDGKPKQFAFVNFKHEVSVPYAMNLLNGIRLYGRPIKIQFRSGSSHAPQDVSLSYPQHHVGNSSPTSTSPSRYERTMDNMTSSAQIIQRSFSSPENFQRQAVMNSALRQMSYGGKFGSSPLDQSGFSPSVQSHSHSFNQSSSSQWRQGTPSSQRKVRMNSYPYLADRHYSREQRYTDHGSDHHYRGKRDDFFYEDRNHDDWSHDYDNRRDSSRDGKWRSSRH”, for which the protein production entry was “not failed”. As for “SGDERFTLRIKDLRTGELLPDIIEDIFYGVAFSPDGTRLFYTVVDDSWRPYQVKSHILGTPVAEDEVLYQEDDVAMWLGFDLSSDRRHLVLSIGCSEFSETRLLRFEDYDAGLHTVISREHHILYEAEPFLLDGKETLLLTHNKDAINSMVSLVDPAELSKPLAEQHWRTVVEHSDDVRVNGAGVTSTHLVLSVRKDTIERVQVLPLAGLGTATQGAPVEPAFHEELYTAGVSGSDYESPVIRMGYTSYFTPSRVYDFVLPTAEQPGGELLLRKESPVLGGYSASDYVATREWATADDGTQVPLSVLRHASVQQDGTAAGLVYGYGSYELSMDPGFGVARLSLLDRGIVMVIAHIRGGGELGRKWYEDGKKFTKKNTFTDFIAATDWLAGSGWVDPSRIAAMGGSAGGLLMGAVANMAPEKYAAVVAQVPFVDALTTILDPELPLSALEWEEWGNPITDPEAYAYMKSYTPYENVGAVPYPKIAAVTSFNDTRVLYVEPAKWVQALRSASTGSEPIVMKIEMDGGHGGASGRYVQWRERAWDYAFIADSVG”, the protein production result is listed as “failed”.

In the case of “SGEKSENCGVPEDLLNGLKVTDTQEAECAGPPVPDPKNQHSQSKLLRDDEAHLQEDQGEEECFHDCSASFEEEPGADKVENKSNEDVNSSELDEEYLIELKKNMSDEEKQKRREESTRLKEEGNEQFKKGDYIEAESSYSRALEMCPSCFQKERSILFSNRAAARMKQDKKEMAINDCSKAIQLNPSYIRAILRRAELYEKTDKLDEALEDYKSILEKDPSIHQAREACMRLPKQIEERNERLKEEMLGKLKDLGNLVLRPFGLSTENFQIKQDSSTGSYSINFVQNPNNNR”, the protein production result is reported as “not failed”. For the sequence “SGHPPLEFSDCYLDSPDFRERLKCYEQELERTNKFIKDVIKDGNALISAMRNYSSAVQKFSQTLQSFQFDFIGDTLTDDEINIAESFKEFAELLNEVENERMMMVHNASDLLIKPLENFRKEQIGFTKERKKKFEKDGERFYSLLDRHLHLSSKKKESQLQEADLQVDKERHNFFESSLDYVYQIQEVQESKKFNIVEPVLAFLHSLFISNSLTVELTQDFLPYKQQLQLSLQNTRNHFSSTREEMEELKKRMKEAPQTCKLPGQPTIEGYLYTQEKCVWGHRGIHWVSISQELLPLVGCEFWAPLLFIDP”, the protein production result is given as “not failed”. In the case of “SGKVILITGASRGIGLQLVKTVIEEDDECIVYGVARTEAGLQSLQREYGADKFVYRVLDITDRSRMEALVEEIRQKHGKLDGIVANAGMLEPVKSISQSNSEHDIKQWERLFDVNFFSIVSLVALCLPLLKSSPFVGNIVFVSSGASVKPYNGWSAYGCSKAALNHFAMDIASEEPSDKVRAVCIAPGVVDTQMQKDIRETLGPQGMTPKALERFTQLYKTSSLLDPKVPAAVLAQLVLKGIPDSLNGQYLRYNDERLGPVQG”, the protein production result was “not failed”. Consider “SHHKVSVSPVVHVRGLCESVVEADLVEALEKFGTICYVMMMPFKRQALVEFENIDSAKECVTFAADVPVYIAGQQAFFNYSTSKRITRPGN”, for which the protein production entry is listed as “not failed”. Regarding “SHPCFVQGRPELLSQIKRKQSARTVEDKQVNEQTQQNLEVVMAEMRAMREKAKNMEDKMNKLTKENRDMWTQMGSMRQQHARQQQYFKKLLHFLVSVMQPGLSKRVAKRGVLEIDFCAANGTAGPNSKRARMNSEEGPYKDVCDLLESLQRETQEPFSRRFTNNEGPLISEVTDEFGNSPVGRGSAQDLFGDTFGAQSSRYSDGGATSSREQSPHPIISQPQSNSAGAHGANEQKPDDMYMGSGPLTHENIHRGISALKRDYQGASPASGGPSTSSSAPSGAGAGARMAQKRAAPYKNATRQMAQPQQDYSGGFVNNYSGFMPSDPSMIPYQPSHQYLQPHQKLMAIEDQHHPTTSTSSTNADPHQNLYSPTLGLSPSFDRQLSQELQEYFTGTDTSLESFRDLVSNHNWDDFGNNVPLDDDEEGSEDPLRQLALENAPETSNYDGAEDLLFDNEQQYPENGFDVPDPNYLPLADEEIFPHSPALRTPSPS”, the protein production result was “failed”.

Consider “SIAYIEPYFLENDAEAASAATAAGKSTDGVSESLNIQGEILCGGAAADIAGRDFGGMNCVKPLAVVRPVGPEDIAGAVKAALRSDKLTVAARGNGHSINGQAMAEGGLVVDMSTTAENHFEVGYLSGGDATAFVDVSGGALWEDVLKRCVSEYGLAPRSWTDYLGLTVGGTLSNAGVSGQAFRYGPQTSNVTELDVVTGNGDVVTCSEIENSELFFSVLGGLGQFGIITRARVLLQPAPDMVRWIRVVYTEFDEFTQDAEWLVSQKNESSFDYVEGFVFVNGADPVNGWPTVPLHPDHEFDPTRLPQSCGSVLYCLELGLHYRDSDSNSTIDKRVERLIGRLRFNEGLRFEVDLPYVDFLLRVKRSEEIAKENGTWETPHPWLNLFVSKRDIGDFNRTVFKELVKNGVNGPMLVYPLLRSRWDDRTSVVIPEEGEIFYIVALLRFVPPCAKVSSVEKMVAQNQEIVHWCVKNGIDYKLYLPHYKSQEEWIRHFGNRWSRFVDRKAMFDPMAILSPGQKIFNRSL”, for which the protein production result is on record as “not failed”.

With “SIPMRLLSDCPQFSRKTVKLLTNGGDMLELCYELRLPFVHWISVNQKSSFKRYEISHVYRRAIGHSPPNPCLQADFDIVGGTLSLTEAEVLKVIVDITTHIFHRGSCDIHLNHGDLLDAIWSWAGIKAEHRRKVAELLSMMGSLRPQSSERKLKWVFIRRQLLQELKLPEAVVNRLQTVASRFCGDADQALPRLRGALRADRPTRKALDELSNLLTYLRVWRIEEHVHIDVLMPPTESYHRNLFFQVFLTKENSSGTSNDGVLLAVGGRYDWLVQEVCDREHKMNLPGAVGVSLALETIFQHLPMDLRPIRNEVSTSVLVCSRGGGGLLVQRMELVAELWEKSIKAEFVPTPDPSLTEQYEYANEHEIKCLVIITESGVAQNQIEFVKVRHLELKKEKVVGR”, the protein production entry is on record as “not failed”.

In the case of “SIRTKQSEAKSKGDTLRQLELAALMTHCNMLITHQQLALQAAMKLAYATKNYLYALAFAKRLLELAPNEEMERTAKKVMQFCERNPNNQNQLDYDIEQSNFAIDAGRLKPCIQPPTKSCVYCGACYDESWHSMTCVVCQVAQD”, the protein production result is recorded as “not failed”. On to “SIVLSDPDTVADYLRFHLGQEKVEVSVALLLNRQNQLIAVRELSRGTVAENTIYIREIVKLALDEYADSLIIAHNHPGGSPEPSQEDIMFTRRLAQAMSLVDVSLLDHFIVTSQSVCSFRQLGLMP”, for which the protein production result is “not failed”. The entry for “SKDHTEFMVHLNNRIILRRWSIFKEFLHSEELKNTPASVEAELAVTAILEKLNQQIPPRPFQTHSSTTSAKQSTATIHNPQRTYCVGDQLNVLLVAKDYFGNRKEYGGDFLRARIFSPAMKAGTSGKVTDFNNGTYLVSFTLFWEGPVSLSILLMHPSEGVSALWRARNRGYGKIIFTGQFLNGTSPVLTECGLTLNTSAELCQYLDARDHEAFYCLKLPGVPCEALTHMTSKNSNISYLSLEEKLLFRRFNIGVEVVKNLSIVVSLCNNKTNKKKKKCQIGMETPSPGGYTLKGRWITAHCEQNEFRAIKDINNCLTRKLIYLMGDSTLRQWIYYLPKVVKTLKYFDRHGAGPFKTHILLDTERHIFVQWKKHSHPFVTNKLFSMKDDNYIPREIDQVAGDSGTAIVISFGQHFRPFPINVFIRRAINVKNAIERLFLRSPETKVIIKTENIREINEHVEIFSDFHGSIQNLIIRDIFRDLNVGIIDAWDMTVAYRSEDVHPPESVIESQIGMFLNYIC” is “failed”; for “SKDPAFTALLTTQLQVQREIVNKHNELRKAVSPPASNMLKMEWSREVTTNAQRWANKCTLQHSDPEDRKTSTRCGENLYMSSDPTSWSSAIQSWYDEILDFVYGVGPKSPNAVVGHYTQLVWYSTYQVGCGIAYCPNQDSLKYYYVCQYCPAGNNMNRKNTPYQQGTPCAGCPDDCDKGLCTNSCQYQDLLSNCDSLKNTAGCEHELLKEKCKATCLCENKIY” it is “failed”. With “SKDVLADYKELFRQFSISDIAVWVSTPSFAGVCITEKEFNSKMLPNLESMIFIGEALSKNLTKELMSRFPNTRIINGYGPTEATVGVSVNDMTQKAIDDEK”, the protein production result is “failed”.

For “SKEVRGTLKVSAPRDIGKQHIAPILAAFTEQYPEVVPYLYLNDNISNLAESGLDVVIRYGELADSSLISRKLATSRRVLCASPAYLARKGIPKTPQDLAQHDCLAMVRSNEEMKTWHFQENEQHKVITVVPKSFADDGEVIR”, the protein production result is “failed”. As to “SKIHNVGSPLKSQNHPDSRAIMYEETTYSKKKIIDFLSALEGFKVMCKIIGIMEEVADGFKSKILKQVISLQTKNPEGRFPDLTVELNRWDTAFDHEKARKTGLITPKAGFDSDYDQALADIRENEQSLLEYLEKQRNRIGCRTIVYWGIGRNRYQLEIPENFTTRNLPEEYELKSTKKGCKRYWTKTIEKKLANLINAEERRDVSLKDCMRRLFYNFDKNYKDWQSAVECIAVLDVLLCLANYSRGGDGPMCRPVILLPEDTPPFLELKGSRHPCITKTFFGDDFIPNDILIGCEEEEQENGKAYCVLVTGPNMGGKSTLMRQAGLLAVMAQMGCYVPAEVCRLTPIDRVFTRLGASDRIMSGESTFFVELSETASILMHATAHSLVLVDELGRGTATFDGTAIANAVVKELAETIKCRTLFSTHYHSLVEDYSQNVAVRLGHMACMVENECEDPSQETITFLYKFIKGACPKSYGFNAARLANLPEEVIQKGHRKAREFEKMNQSLRLFREVCLASERSTVDAEAVHKLLTLIKEL”, the protein production result was “failed”. The entry for “SKIIDIKTSIIKIPLKRTFITAVRSTNHIDSLAVELTLDNGVKGYGVAPATTAITGDTLQGMQYIIREIFAPVILGSDLSDYKQTLELAFKKVMFNSAAKMAIDLAYHDLLAKEQDISVAKLLGAKANSIVTDVSISCGNVAETIQNIQNGVEANFTAIKVKTGADFNRDIQLLKALDNEFSKNIKFRFDANQGWNLAQTKQFIEEINKYSLNVEIIEQPVKYYDIKAMAEITKFSNIPVVADESVFDAKDAERVIDEQACNMINIKLAKTGGILEAQKIKKLADSAGISCMVGCMMESPAGILATASFALAEDITVADLDPLDWVAKDLYSDYITFNEPNIILKDNLKGFGFNL” is “not failed”; for “SLDLDLQRRVYDIISKAVEGNSAEAGHVIVMESKTGRILSMVTTRNWNDLIGGYIEPGSTIKPLVYAIALETHSASPDFTVECEGSIKPVEQLPVIIRDIEKHGLVDFSAGIVKSCNVMSVKVGELITEKTGVEGFYEWLRKVGFGEKTGIEMEGEIAGVLREPKKWSLIDPAEISIGQGIGVTPVQLIASLNIFANDGYWVKPTILKDSPVKKRRVFSKETTDVIRQAMVRVVEEGTGKLAQVKGIAIAGKTGTAQKAVGGEYRNLYHSLFVGFFPAEDPKYTILVHLDSPSGAFYGGEVAAPVFREIVEILTEKED” it is “failed”.

Turning to “SLENERLIKMSRFSERGYVVRENGPVYFTKDMDKTVKWFEEILGWSGDIVARDDEGFGDYGCVFDYPSEVAVAHLTPFRGFHLFKGEPIKGVAGFMMIEGIDALHKYVKENGWDQISDIYTQPWGARECSITTTDGCILRFFESIQEG”, the protein production entry is reported as “not failed”. Take “SLENLATAPVNQIQETISDNCVVIFSKTSCSYCTMAKKLFHDMNVNYKVVELDLLEYGNQFQDALYKMTGERTVPRIFVNGTFIGGATDTHRLHKEGKLLPLVHQCYLKKSKRKEFQ”: the protein production result is given as “not failed”. In the case of “SLGAMFRAGTPMPPNLNSQGGGHYFIDRDGKAFRHILNFLRLGRLDLPRGYGETALLRAEADFYQIRPLLDALRELEASQGTPAPTAALLHADVDVSPRLVHFSARRGPHHYELSSVQVDTFRANLFCTDSECLGALRARFGVASGDRAEGSPHFHLEWAPRPVELPEVEYGRLGLQPLWTGGPGERREVVGTPSFLEEVLRVALEHGFRLDSVFPDPEDLLNSRSLRFVRH”, the protein production result was “not failed”.
